Source: publication doi:10.1101/2023.09.28.559900

Target: mouse PIEZO1-S2472E mutant (mouse) (UniProt E2JF22)
Experiment: cryo-EM structure

Substance: mouse PIEZO1-S2472E mutant, E2JF22 1-2547
- stoichiometry N: 3
